Measurements from the supplement of paper PMC5998384.

Tests used:
HeLa Kyoto [1] = assay: solubility change mitosis vs G1/S (difference of NP-40 vs SDS log2 ratios) (log2 ratio difference); higher = more soluble in mitosis
HeLa Kyoto [2] = assay: solubility in G1/S (NP-40 vs SDS abundance) (log2 ratio); higher = more soluble; settings: cell cycle stage: G1/S
HeLa Kyoto [3] = assay: thermal stability score vs G1/S (z-score of summed log2 fold changes over temperatures); higher = more thermally stable than in G1/S
HeLa Kyoto [4] = assay: melting temperature (median over replicates), in situ; higher = more thermally stable
[5] = cell cycle stage: early G1 (4.5 h after nocodazole release)
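For melting temperature (median over replicates), in situ in this document: HeLa Kyoto cells synchronized by double thymidine or nocodazole block, proteins quantified by TMT10plex mass spectrometry, three independent biological replicates.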
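For solubility change mitosis vs G1/S (difference of NP-40 vs SDS log2 ratios) in this document: synchronized HeLa Kyoto cells (double thymidine block for G1/S, nocodazole release for mitosis), protein amounts in NP-40 versus SDS lysates quantified by mass spectrometry, three biological replicates.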
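For solubility in G1/S (NP-40 vs SDS abundance) in this document: HeLa Kyoto cells arrested at G1/S by double thymidine block, proteins quantified by TMT10plex mass spectrometry in mild NP-40 versus SDS extracts, three biological replicates.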
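For thermal stability score vs G1/S (z-score of summed log2 fold changes over temperatures) in this document: synchronized HeLa Kyoto cells, proteins quantified by TMT10plex mass spectrometry, three biological replicates, mitosis taken 0.5 h after nocodazole release, G1/S directly after double thymidine block.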

What does the source list for “MEPPYSLTAHYDEFQEVKYVSRCGAGGARGASLPPGFPLGAARSATGARSGLPRWNRREVCLLSGLVFAAGLCAILAAMLALKYLGPVAAGGGACPEGCPERKAFARAARFLAANLDASIDPCQDFYSFACGGWLRRHAIPDDKLTYGTIAAIGEQNEERLRRLLARPGGGPGGAAQRKVRAFFRSCLDMREIERLGPRPMLEVIEDCGGWDLGGAEERPGVAARWDLNRLLYKAQGVYSAAALFSLTVSLDDRNSSRYVIRIDQDGLTLPERTLYLAQDEDSEKILAAYRVFMERVLSLLGADAVEQKAQEILQVEQQLANITVSEHDDLRRDVSSMYNKVTLGQLQKITPHLRWKWLLDQIFQEDFSEEEEVVLLATDYMQQVSQLIRSTPHRVLHNYLVWRVVVVLSEHLSPPFREALHELAQEMEGSDKPQELARVCLGQANRHFGMALGALFVHEHFSAASKAKVQQLVEDIKYILGQRLEELDWMDAETRAAARAKLQYMMVMVGYPDFLLKPDAVDKEYEFEVHEKTYFKNILNSIRFSIQLSVKKIRQEVDKSTWLLPPQALNAYYLPNKNQMVFPAGILQPTLYDPDFPQSLNYGGIGTIIGHELTHGYDDWGGQYDRSGNLLHWWTEASYSRFLRKAECIVRLYDNFTVYNQRVNGKHTLGENIADMGGLKLAYHAYQKWVREHGPEHPLPRLKYTHDQLFFIAFAQNWCIKRRSQSIYLQVLTDKHAPEHYRVLGSVSQFEEFGRAFHCPKDSPMNPAHKCSVW [ECEL1]”?
solubility change mitosis (log2) (HeLa Kyoto [1]): -0.124; solubility in G1/S (log2) (HeLa Kyoto [2]): -0.0684; thermal stability score (HeLa Kyoto [3]; [5]): 0.162; thermal stability score (HeLa Kyoto [3]; cell cycle stage: mitosis): 2.03; melting temperature (HeLa Kyoto [4]; cell cycle stage: G1/S): 52.9 °C; melting temperature (HeLa Kyoto [4]; cell cycle stage: mitosis): 52.1 °C

“MEPRAVAEAVETGEEDVIMEALRSYNQEHSQSFTFDDAQQEDRKRLAELLVSVLEQGLPPSHRVIWLQSVRILSRDRNCLDPFTSRQSLQALACYADISVSEGSVPESADMDVVLESLKCLCNLVLSSPVAQMLAAEARLVVKLTERVGLYRERSFPHDVQFFDLRLLFLLTALRTDVRQQLFQELKGVRLLTDTLELTLGVTPEGNPPPTLLPSQETERAMEILKVLFNITLDSIKGEVDEEDAALYRHLGTLLRHCVMIATAGDRTEEFHGHAVNLLGNLPLKCLDVLLTLEPHGDSTEFMGVNMDVIRALLIFLEKRLHKTHRLKESVAPVLSVLTECARMHRPARKFLKAQVLPPLRDVRTRPEVGEMLRNKLVRLMTHLDTDVKRVAAEFLFVLCSESVPRFIKYTGYGNAAGLLAARGLMAGGRPEGQYSEDEDTDTDEYKEAKASINPVTGRVEEKPPNPMEGMTEEQKEHEAMKLVTMFDKLSRNRVIQPMGMSPRGHLTSLQDAMCETMEQQLSSDPDSDPD [RIC8A]” was tested. Which “solubility change mitosis (log2)” value (HeLa Kyoto [1]) did it give?
The value was 0.342.

What about the “solubility in G1/S (log2)” value (HeLa Kyoto [2]) of the same sequence?
Its value is -0.322.

And the thermal stability score (HeLa Kyoto [3]; [5])?
The thermal stability score was 1.87.

And the thermal stability score (HeLa Kyoto [3]; cell cycle stage: mitosis)?
Its thermal stability score is -0.505.

And the melting temperature (HeLa Kyoto [4]; cell cycle stage: G1/S)?
Its melting temperature is 51.6 °C.

And the melting temperature (HeLa Kyoto [4]; cell cycle stage: mitosis)?
Its melting temperature is 49.6 °C.

How did the “solubility change mitosis (log2)” value (HeLa Kyoto [1]) turn out when “MEQEPQNGEPAEIKIIREAYKKAFLFVNKGLNTDELGQKEEAKNYYKQGIGHLLRGISISSKESEHTGPGWESARQMQQKMKETLQNVRTRLEILEKGLATSLQNDLQEVPKLYPEFPPKDMCEKLPEPQSFSSAPQHAEVNGNTSTPSAGAVAAPASLSLPSQSCPAEAPPAYTPQAAEGHYTVSYGTDSGEFSSVGEEFYRNHSQPPPLETLGLDADELILIPNGVQIFFVNPAGEVSAPSYPGYLRIVRFLDNSLDTVLNRPPGFLQVCDWLYPLVPDRSPVLKCTAGAYMFPDTMLQAAGCFVGVVLSSELPEDDRELFEDLLRQMSDLRLQANWNRAEEENEFQIPGRTRPSSDQLKEASGTDVKQLDQGNKDVRHKGKRGKRAKDTSSEEVNLSHIVPCEPVPEEKPKELPEWSEKVAHNILSGASWVSWGLVKGAEITGKAIQKGASKLRERIQPEEKPVEVSPAVTKGLYIAKQATGGAAKVSQFLVDGVCTVANCVGKELAPHVKKHGSKLVPESLKKDKDGKSPLDGAMVVAASSVQGFSTVWQGLECAAKCIVNNVSAETVQTVRYKYGYNAGEATHHAVDSAVNVGVTAYNINNIGIKAMVKKTATQTGHTLLEDYQIVDNSQRENQEGAANVNVRGEKDEQTKEVKEAKKKDK [SPG20]” was run?
The value was -0.0384.

And the “solubility in G1/S (log2)” value (HeLa Kyoto [2])?
The value was 0.205.

And the thermal stability score (HeLa Kyoto [3]; [5])?
Its thermal stability score is 1.64.

What about the thermal stability score (HeLa Kyoto [3]; cell cycle stage: mitosis) of the same sequence?
The thermal stability score was 1.92.

What about the melting temperature (HeLa Kyoto [4]; cell cycle stage: G1/S) of the same sequence?
The melting temperature was 49.8 °C.

What about the melting temperature (HeLa Kyoto [4]; cell cycle stage: mitosis) of the same sequence?
Its melting temperature is 50.4 °C.
